Numbering of substitutions follows the chain as printed.
B1: DBE WT probe (dsDNA)
DNA 1: CTCACCGCCATTCATGAAGGGGTGGAGCCTGCCTG
DNA 2: CAGGCAGGCTCCACCCCTTCATGAATGGCGGTGAG
B2: DBE MUT probe (dsDNA)
DNA 1: B1 DNA 1 with A10G, T11C, T12C
DNA 2: B1 DNA 2 with A24G, A25G, T26C

Columns and labels:
GST = GST (UniProt P08515 P08515:2-218); assay: EMSA; GST alone control; conditions: tags: GST alone, label: 32P end
Description: (§1) The Kpnl-D4Z4 unit plasmid, used to generate EMSA probes for the experiments shown in FIGS. 2A-2C, was kindly provided by L. Felicetti. For the EMSA experiments shown in FIG. 4, oligonucleotide probes were prepared by end-labeling double-stranded oligonucleotides covering the region of the minimal binding site. The sequences of the oligonucleotides were as follows: WT, 5′-[…]-3′ (SEQ ID NO:1); MUT, 5′-CTCACCGCCgcc[…]-3′ (SEQ ID NO:2) (mutated nucleotides are shown in italics). DNA binding reactions were carried out in 20 μl of 10 mM HEPES (pH 8), 10% glycerol, 50 mM KCl, 0.1 mM EDTA, 0.25 mM DTT, 0.1 mg/ml poly (dl-dC), 0.1 mg/ml bovine serum albumin, 20,000 cpm of radiolabeled probe. The samples were incubated for 30 minutes on ice in the presence of the indicated nuclear extract or protein fraction. For competition assays, unlabeled probes were added to the reaction mixture at the same time as the labeled probe. For supershift assays, a binding reaction was assembled in the absence of radiolabeled probe. Antibodies were added to the binding reaction and the samples were incubated 15 minutes at room temperature. Radiolabled probe was added and the samples were incubated for additional 30 minutes on ice. Reaction mixtures were loaded in the cold room onto 6% native polyacrylamide gels containing 0.5×Tris-borate-EDTA (TBE) that had been preelectrophoresed for 30 minutes at 20 mA. […]

GST-YY1 [1] = molecular target: T1, GST-YY1 (UniProt P25490 P25490:1-414); assay: EMSA; 50 mM KCl, pH 8, poly(dI-dC), on ice; conditions: tags: GST fusion, expressed in E. coli; label: 32P end
Description: as §1

GST-YY1 [2] = molecular target: T1, GST-YY1; assay: EMSA; YY1 core mutated; conditions: tags: GST fusion, expressed in E. coli; label: 32P end
Description: as §1

T1 sequence (P25490 whole entry, the tested form may be a part, one chain of several): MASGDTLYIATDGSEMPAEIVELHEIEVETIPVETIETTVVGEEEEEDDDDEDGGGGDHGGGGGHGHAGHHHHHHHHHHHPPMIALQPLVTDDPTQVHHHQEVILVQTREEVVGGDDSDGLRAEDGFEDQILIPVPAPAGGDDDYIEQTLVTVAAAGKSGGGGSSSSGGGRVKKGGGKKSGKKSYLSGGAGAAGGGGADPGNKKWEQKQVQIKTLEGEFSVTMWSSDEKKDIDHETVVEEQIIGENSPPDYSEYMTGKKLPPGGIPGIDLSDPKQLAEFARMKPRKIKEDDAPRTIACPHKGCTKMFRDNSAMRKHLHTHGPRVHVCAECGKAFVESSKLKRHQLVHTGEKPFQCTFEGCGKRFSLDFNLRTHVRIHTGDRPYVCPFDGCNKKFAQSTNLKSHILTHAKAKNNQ
Sequence of GST (P08515 2-218, one chain of several): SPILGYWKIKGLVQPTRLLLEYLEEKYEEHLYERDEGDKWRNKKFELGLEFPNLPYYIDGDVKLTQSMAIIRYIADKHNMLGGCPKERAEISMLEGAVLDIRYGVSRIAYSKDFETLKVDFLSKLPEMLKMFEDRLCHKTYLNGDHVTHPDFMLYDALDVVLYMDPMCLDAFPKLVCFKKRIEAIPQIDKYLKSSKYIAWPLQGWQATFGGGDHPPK

| Binder | binding result (GST) | binding result (GST-YY1 [1]) | binding result (GST-YY1 [2]) |
| --- | --- | --- | --- |
| B1 | no binding | binds |  |
| B2 |  |  | no binding |

Source: patent publication US20050054012, “Methods of detecting and treating facioscapulohumeral muscular dystrophy” (published 2005)
